The results in this text go back to patent US20170037149A1 (Amgen, published 2017).

For this assay, the target named is T1, human FLT3 (human, UniProt P36888 27-993).
T1 construct: On transfected CHO cells, or on the FLT3 positive human AML cell lines EOL-1 / MV4-11 where the row says so; also called hu FLT3; full length human FLT3
The experiment in a line: FACS, scFv on CHO-human FLT3 pre-incubated with FLT3 ligand (competitor). (A flow cytometer gives signals particle by particle.)

Procedure: The detection was performed using mouse anti-FLAG+PE-conjugated goat anti-mouse and the Fluorescence median detected by FACS (median (+ligand)/median (w/o ligand)*100%)
Afterwards cells were not washed but directly stained with FLT3 binder (scFv's). […] As negative control, cells were incubated with an unspecific scFv instead of FLT3 scFv.
For the evaluation of the data, the fluorescence median was detected by FACS.

B1: FL-26 scFv (scFv)
scFv: QVTLKESGPVLVKPTETLTLTCTVSGFSFRNARMGVSWIRQPPGKALEWLAHIFSNDEKSYSTSLKSRLTISKDTSKSQVVLTLTNMDPVDTATYFCARMPEYSSGWSGAFDIWGQGTMVTVSSGGGGSGGGGSGGGGSDIQMTQSPSSLSASVGDRVTITCRASQGIRNDLVWYQQKPGKAPKRLIYGTSTLQSGVPSRFSGSGSGTEFTLTISSLQPEDFATYYCLQHNSYPLTFGGGTKVEIK
notes: periplasmic prep
As to B1, the “median [+ligand]/median [w/o ligand]*100” value was at least 75%.

B2: FL-24 scFv (scFv)
scFv: QVTLKESGPALVKPTETLTLTCTVSGFSLRNVRMGVSWIRQPPGKALEWLAHIFSNDEKSYSTSLKSRLTISKDTSKSQVVLILTNMDPVDTATYFCARMPEYSSGWSGAFDIWGQGTMVTVSSGGGGSGGGGSGGGGSDIQMTQSPSSLSASVGDRVTITCRASQDIRDDLVWYQQKPGKAPKRLIYAASTLQSGVPSRFSGSGSGTEFTLTISSLQPEDFATYYCLQHHSYPWTFGQGTKVEIK
notes: periplasmic prep
For B2, the “median [+ligand]/median [w/o ligand]*100” value was at least 75%.

B3: FL-27 scFv (scFv)
scFv: QVTLKESGPVLVKPTETLTLTCTVSGFSFRNARMGVSWIRQPPGKALEWLAHIFSNDEKSYSTSLKSRLTISKDTSKSQVVLTLTNMDPVDTATYFCARMPEYSSGWSGAFDIWGQGTMVTVSSGGGGSGGGGSGGGGSDIQMTQSPSSLSASVGDRVTITCRTSQGIRNDLVWYQQKPGKAPKRLIYAASTLQSGVPSRFSGSGSGTEFTLTISSLQPEDFATYFCLQHYSYPLTFGGGTKVEIK
notes: periplasmic prep
As to B3, the “median [+ligand]/median [w/o ligand]*100” value was at least 75%.

B4: FL-36 scFv (scFv)
scFv: QVTLKESGPTLVKPTETLTLTCTFSGFSLRYARMGVSWIRQPPGKALEWLAHIFSNDEKSYSTSLKSRLTISKDTSKSQVVLTLTNMDPVDTATYFCARMPEYSSGWSGAFDIWGQGTMVTVSSGGGGSGGGGSGGGGSDIQMTQSPSSLSASVGDRVTITCRASQDIRNDLAWYQQKPGKAPKRLIYAASSLQSGVPSRFSGSGSGTEFTLTISSLQPEDFATYYCLQHNSYPLTFGGGTKLEIK
notes: periplasmic prep
As for B4, the “median [+ligand]/median [w/o ligand]*100” value is at least 75%.

B5: FL-59 scFv (scFv)
scFv: QVTLKESGPMLVKPTETLTLTCTVSGFSLRNVRMGVSWIRQPPGKALEWLAHIFSNDEKSYSTSLKSRLTISKDTSKSQVVLTLTNMDPVDTATYFCARMPEYSSGWSGAFDIWGQGTMVTVSSGGGGSGGGGSGGGGSDIQMTQSPSSLSASVGDRVTITCRASQDIRDDLGWYQQKPGNAPKRLIYGASTLQSGVPSRFSGSGSGTEFTLTISSLQPEDFATYYCLQHNSYPLTFGGGTRLEIK
notes: periplasmic prep
Take B5: the “median [+ligand]/median [w/o ligand]*100” value was at least 75%.

B6: FL-28 scFv (scFv)
scFv: QVTLKESGPVLVKPTETLTLTCTVSGFSFRNARMGVSWIRQPPGKALEWLAHIFSNDEKSYSTSLKSRLTISKDTSKSQVVLTLTNMDPVDTATYFCARMPEYSSGWSGAFDIWGQGTMVTVSSGGGGSGGGGSGGGGSDIQMTQSPSSLSASVGDRVTITCRASQGIGDDLGWYQQIPGKAPKRLIYATSVLQSGVPSRFSGSGSGTEFTLTISSLQPEDFATYYCLQHNSYPLTFGGGTKVEIK
notes: periplasmic prep
Turning to B6, the “median [+ligand]/median [w/o ligand]*100” value is at least 75%.

B7: FL-10 scFv (scFv)
scFv: QVTLKESGPVLVKPTETLTLTCTVSGFSFRNARMGVSWIRQPPGKALEWLAHIFSNDEKSYSTSLKSRLTISKDTSKSQVVLTLTNMDPVDTATYFCARMPEYSSGWSGAFDIWGQGTMVTVSSGGGGSGGGGSGGGGSDIQMTQSPSSLSASVGDRVTITCRASQDIRDDLGWYQQKPGNAPKRLIYGASTLQSGVPSRFSGSGSGTEFTLTISSLQPEDFATYYCLQHNSYPLTFGGGTKVDIK
notes: periplasmic prep
For B7, the “median [+ligand]/median [w/o ligand]*100” value is at least 75%.

B8: FL-52 scFv (scFv)
scFv: QVTLKESGPTLVKPTETLTLTCTFSGFSLRYARMGVSWIRQPPGKCLEWLAHIFSNDEKSYSTSLKSRLTISKDTSKSQVVLTLTNMDPVDTATYFCARMPEYSSGWSGAFDIWGQGTMVTVSSGGGGSGGGGSGGGGSDIQMTQSPSSLSASVGDRVTITCRASQDIRNDLAWYQQKPGKAPKRLIYAASSLQSGVPSRFSGSGSGTEFTLTISSLQPEDFATYYCLQHNSYPLTFGCGTKLEIK
notes: periplasmic prep
In the case of B8, the “median [+ligand]/median [w/o ligand]*100” value was at least 75%.

B9: FL-23 scFv (scFv)
scFv: QVTLKESGPALVKPTETLTLTCTVSGFSFRNARMGVSWIRQPPGKALEWLAHIFSNDEKSYSTSLKSRLTISKDTSKSQVVLTLTNMDPVDTATYFCARMPEYSSGWSGAFDIWGQGTMVTVSSGGGGSGGGGSGGGGSDIQMTQSPSSLSASVGDRVTITCRASQDIGYDLGWYQQKPGKAPKRLIYAASTLQSGVPSRFSGSGSGTEFTLIISSLQPEDFATYYCLQHNSFPWTFGQGTKVEIK
notes: periplasmic prep
B9: the “median [+ligand]/median [w/o ligand]*100” value is at least 75%.

B10: FL-43 scFv (scFv)
scFv: QVTLKESGPVLVKPTETLTLTCTVSGFSFRNARMGVSWIRQPPGKCLEWLAHIFSNDEKSYSTSLKSRLTISKDTSKSQVVLTLTNMDPVDTATYFCARMPEYSSGWSGAFDIWGQGTMVTVSSGGGGSGGGGSGGGGSDIQMTQSPSSLSASVGDRVTITCRASQGIRNDLVWYQQKPGKAPKRLIYGTSTLQSGVPSRFSGSGSGTEFTLTISSLQPEDFATYYCLQHNSYPLTFGCGTKVEIK
notes: periplasmic prep
In the case of B10, the “median [+ligand]/median [w/o ligand]*100” value was at least 75%.

B11: FL-37 scFv (scFv)
scFv: QVTLKESGPVLVKPTETLTLTCTVSGFSLRNIKMGVSWIRQPPGKALEWLAHIFSNDEKSYSTSLKSRLTISKDTSKSQVVLTLTNMDPVDTATYFCARMPEYSSGWSGAFDIWGQGTMVTVSSGGGGSGGGGSGGGGSDIQMTQSPSSLSASVGDRVTITCRASQDISNYLAWYQQKPGKAPKRLIYAASSLQSGVPSRFSGSGSGTEFTLTISSLQPEDFATYYCLQHNSFPLTFGGGTKLEIK
notes: periplasmic prep
For the molecule B11, the “median [+ligand]/median [w/o ligand]*100” value is at least 75%.

B12: FL-25 scFv (scFv)
scFv: QVTLKESGPALVKPTETLTLTCTVSGFSFRNARMGVSWIRQPPGKALEWLAHIFSNDEKSYSTSLKSRLTISKDTSKSQVVLTLTNMDPVDTATYFCARMPEYSSGWSGAFDIWGQGTMVTVSSGGGGSGGGGSGGGGSDIQMTQSPSSLSASVGDRVTITCRASQDIRDDLGWYQQKPGKAPKRLIYAASTLQSGVPSRFTGGGSGTEFTLTISSLQPEDFATYYCLQHNSFPFTFGGGTKVEIK
notes: periplasmic prep
Turning to B12, the “median [+ligand]/median [w/o ligand]*100” value was at least 75%.

B13: FL-22 scFv (scFv)
scFv: QVTLKESGPVLVKPTETLTLTCTVSGFSFRNARMGVSWIRQPPGKALEWLAHIFSNDEKSYSTSLKSRLTISKDTSKSQVVLTLTNMDPVDTATYFCARMPEYSSGWSGAFDIWGQGTMVTVSSGGGGSGGGGSGGGGSDIQMTQSPSSLSASVGDRVTITCRASQGISNYLAWYQQKPGKAPKRLIYAASTLQSGVPSRFSGSGSGTEFTLTISSLQPEDFATYYCLQHNTYPWTFGQGTKVEIK
notes: periplasmic prep
With B13, the “median [+ligand]/median [w/o ligand]*100” value was at least 75%.

B14: FL-44 scFv (scFv)
scFv: QVTLKESGPVLVKPTETLTLTCTVSGFSFRNARMGVSWIRQPPGKCLEWLAHIFSNDEKSYSTSLKSRLTISKDTSKSQVVLTLTNMDPVDTATYFCARMPEYSSGWSGAFDIWGQGTMVTVSSGGGGSGGGGSGGGGSDIQMTQSPSSLSASVGDRVTITCRTSQGIRNDLVWYQQKPGKAPKRLIYAASTLQSGVPSRFSGSGSGTEFTLTISSLQPEDFATYFCLQHYSYPLTFGCGTKVEIK
notes: periplasmic prep
Regarding B14, the “median [+ligand]/median [w/o ligand]*100” value was at least 75%.

B15: FL-38 scFv (scFv)
scFv: QVTLKESGPVLVKPTETLTLTCTVSGFSFRNARMGVSWIRQPPGKALEWLAHIFSNDEKSYSTSLKSRLTISKDTSKSQVVLTLTNMDPVDTATYFCARMPEYSSGWSGAFDIWGQGTLVTVSSGGGGSGGGGSGGGGSDIQMTQSPSSLSASVGDRVTITCRASQGIRNDLGWYQQKPGKAPKRLIYAASSLQSGVPSRFSGSGSGTEFTLTISSLQPEDFATYYCLQHNSYPLTFGGGTKLEIK
notes: periplasmic prep
As for B15, the “median [+ligand]/median [w/o ligand]*100” value was at least 75%.

B16: FL-14 scFv (scFv)
scFv: QVTLKESGPALVKPTETLTLTCTLSGFSLNNARMAVSWIRQPPGKTLEWLAHIFSNDEKSYSTSLKSRLTISKDTSKGQVVLTMTNMDPVDTATYYCARIVGYGSGWYGYFDYWGQGTLVTVSSGGGGSGGGGSGGGGSDIQMTQSPSSLSASVGDRVTITCRASQDIRNDLGWYQQKPGKAPKRLIYAASTLQSGVPSRFSGSGSGTEFTLTISSLQPEDFATYYCLQHNSYPLTFGGGTKVEIK
notes: periplasmic prep
Turning to B16, the “median [+ligand]/median [w/o ligand]*100” value was at least 75%.

B17: FL-6 scFv (scFv)
scFv: QVTLKESGPTLVKPTETLTLTCTLSGFSLNNARMAVSWIRQPPGKTLEWLAHIFSNDEKSYSPSLKSRLTISKDTSKSQVVLTMTNMDPEDTATYYCARIVGYGTGWYGFFDYWGQGILVTVSSGGGGSGGGGSGGGGSDIQMTQSPSSLSASVGDRVTITCRASQGIRNDLGWFQQKPGKAPKRLIYAASVLQSGVPSRFSGSGSGTEFTLTISSLQPEDFATYYCLQHNSYPLTFGGGTKVDIK
notes: periplasmic prep
With B17, the “median [+ligand]/median [w/o ligand]*100” value is at least 75%.

B18: FL-11 scFv (scFv)
scFv: QVTLKESGPVLVKPTETLTLTCTLSGFSLNNAKMGVSWIRQPPGKALEWLAQIFSNGEKSYSTSLKSRLTISKDTSKGQVVLTMTNMDPVDTATYYCSRIVGYGSGWYGYFDYWGQGTLVTVSSGGGGSGGGGSGGGGSDIQMTQSPSSLSASVGDRVTITCRASQGIRNDLGWYQQKPGKAPKRLIYGASTLQSGVPSRFSGSGSGTEFTLTISSLQPEDFATYYCLQHNSYPLTFGGGTKVEIK
notes: periplasmic prep
For the molecule B18, the “median [+ligand]/median [w/o ligand]*100” value is at least 75%.

B19: FL-4 scFv (scFv)
scFv: QVTLKESGPALVKPTETLTLTCTLSGFSLNNAKMGVSWIRQPPGKALEWLAHIFSNDEKSYSTSLKSRLTISKDTSKGQVVLTMTNMDPVDTATYYCARIVGYGSGWYGYFDYWGQGTLVTVSSGGGGSGGGGSGGGGSDIQMTQSPSSLSASVGDRVTITCRASQDIRDDLGWYQQKPGNAPKRLIYGASTLQSGVPSRFSGSGSGTEFTLTISSLQPEDFATYYCLQHNSYPLTFGGGTKVDIK
notes: periplasmic prep
As for B19, the “median [+ligand]/median [w/o ligand]*100” value was at least 75%.
